Read-outs that look alike come from different tables or passages of the source.
Key:
[1] = molecular target: T1, porcine TSH receptor (immobilized, TSH Receptor Autoantibody 2nd Generation ELISA kit, RSR Limited) (porcine, UniProt Q8SPP9 22-764, limits assumed); test: competition ELISA; inhibition of biotinylated rhTSH binding to immobilized porcine TSH receptor
T1 construct: Bought kit plates; the construct is not described
Protocol: (§1) Purified PEGylated conjugates were analyzed by in vitro porcine TSH receptor binding assay using the TSH Receptor Autoantibody 2nd Generation ELISA kit from RSR Limited (Kronus, Star, Id.). Instead of using the biotinylated human monoclonal autoantibody to the TSH receptor provided by the kit, we biotinylated Thyrogen® (rhTSH) to use for competitive inhibition of binding to TSH receptor. Binding of biotinylated rhTSH to immobilized porcine TSH receptor was inhibited by either rhTSH control or PEGylated rhTSH conjugates and IC₅₀ values were measured.
(§2) Thyrogen® was biotinylated with 1.7 to 1.8 biotins per protein using the ChromaLink™ Biotin Labeling Reagent according to the manufacturer's protocol (QED Bioscience Inc., San Diego, Calif.) and buffer exchanged into 50 mM sodium phosphate, 150 mM sodium chloride pH 7.0 with a Zeba™ Desalt Spin Column (Thermo Scientific, Rockford, Ill.). In vitro measurement of receptor binding was performed by competition of biotinylated Thyrogen® and PEG-rhTSH conjugate for binding to porcine TSH receptor immobilized onto 96-well plates supplied with the TSH Receptor Autoantibody 2nd Generation ELISA kit from RSR Limited (Kronus, Star, Id.). PEG-rhTSH conjugates were serially diluted 1:5 from 16 μM to 41 pM in assay buffer (100 mM HEPES pH 7.5, 20 mM EDTA, 1% BSA, 0.5% Triton X-100) and mixed 1:1 with biotinylated Thyrogen® diluted 1000-fold in assay buffer. The mixture was added to each receptor-coated well and incubated at 25° C. for 25 minutes. Unbound rhTSH was washed away and streptavidin peroxidase was added at 25° C. for 20 minutes according to the RSR Limited ELISA protocol to determine the amount of biotinylated Thyrogen® bound to the plate. The plate was then washed three times to remove excess unbound streptavidin peroxidase and then tetramethylbenzidine (TMB) was added to each well and incubated in the dark at 25° C. for 30 minutes. The reaction which was quenched with 0.5M sulfuric acid stop buffer and the absorbance of each well was read at 450 nm using a SpectraMax® 340pc plate reader (Molecular Devices, Sunnyvale, Calif.). The data was fit using a sigmoidal dose response equation with GraphPad Prism software to generate IC₅₀ values.

[2] = molecular target: T1, porcine TSH receptor (immobilized, TSH …); test: as above; remark: listed apart in the source
Protocol: as §1, §2

[3] = molecular target: T1, porcine TSH receptor (immobilized, TSH …); test: in vitro TSH receptor binding assay (competition ELISA)

T1 sequence (Q8SPP9 22-764 limits assumed): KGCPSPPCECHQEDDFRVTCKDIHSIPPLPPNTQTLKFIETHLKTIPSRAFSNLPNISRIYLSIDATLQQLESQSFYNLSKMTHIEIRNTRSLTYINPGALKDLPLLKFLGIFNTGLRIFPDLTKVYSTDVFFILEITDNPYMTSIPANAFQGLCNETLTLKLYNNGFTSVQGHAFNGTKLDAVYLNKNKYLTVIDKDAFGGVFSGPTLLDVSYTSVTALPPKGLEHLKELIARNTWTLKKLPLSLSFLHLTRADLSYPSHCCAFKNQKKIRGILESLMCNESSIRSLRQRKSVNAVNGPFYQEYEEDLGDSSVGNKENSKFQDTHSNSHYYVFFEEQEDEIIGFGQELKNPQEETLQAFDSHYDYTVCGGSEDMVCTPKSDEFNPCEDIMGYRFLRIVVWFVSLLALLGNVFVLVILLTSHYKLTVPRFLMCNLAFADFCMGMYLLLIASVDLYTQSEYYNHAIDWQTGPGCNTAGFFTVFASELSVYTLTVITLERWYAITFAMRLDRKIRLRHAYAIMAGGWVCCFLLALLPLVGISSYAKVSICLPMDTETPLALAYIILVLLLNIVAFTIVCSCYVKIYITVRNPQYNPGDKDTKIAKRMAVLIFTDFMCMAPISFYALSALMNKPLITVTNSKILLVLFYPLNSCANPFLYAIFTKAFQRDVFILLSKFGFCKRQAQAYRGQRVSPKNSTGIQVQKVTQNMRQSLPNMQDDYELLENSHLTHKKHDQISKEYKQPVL

Binder | IC50 [1] | fold change (IC50 against rhTSH) [1] | IC50 [2] | fold change (IC50 against rhTSH) [2] | fold decrease of receptor binding affinity against rhTSH control [3]
G22C rhTSH (TSH G22C (alpha)) (ligand, Alpha Cys22 may carry a cap after expression; whether the assayed sample was capped is not stated. N-glycans at alpha Asn52, Asn78 and beta Asn23., Cysteine mutant without PEG, produced in CHO cells; also called alphaG22C TSH) alpha: not shown beta: FCIPTEYTMHIERRECAYCLTINTTICAGYCMTRDINGKLFLPKYALSQDVCTYRDFIYRTVEIPGCPLHVAPYFSYPVALSCKCGKCNTDYSDCIHEAIKTNYCTKPQKSYLVGFSV | 41.6 nM | 1.5 fold |  |  | 
40 kD linear G22C (PEGylated Cys-mutant TSH) (ligand, Chain 1 (alpha) pos 22: Cys carrying a 40 kD linear cysteine-reactive PEG, written C. N-glycans at alpha Asn52, Asn78 and beta Asn23., also called 40 KD G22C) alpha: not shown beta: FCIPTEYTMHIERRECAYCLTINTTICAGYCMTRDINGKLFLPKYALSQDVCTYRDFIYRTVEIPGCPLHVAPYFSYPVALSCKCGKCNTDYSDCIHEAIKTNYCTKPQKSYLVGFSV | 248 nM | 8.9 fold |  |  | 
N-terminal mono-PEGylated rhTSH with 40 kD PEG (ligand, One 40 kD aldehyde PEG on an N-terminal amine (alpha Ala1 or beta Phe1; which subunit is not stated). N-glycans at alpha Asn52, Asn78 and beta Asn23. None is carried by the letters., also called 40 kD N-terminal) alpha: not shown beta: FCIPTEYTMHIERRECAYCLTINTTICAGYCMTRDINGKLFLPKYALSQDVCTYRDFIYRTVEIPGCPLHVAPYFSYPVALSCKCGKCNTDYSDCIHEAIKTNYCTKPQKSYLVGFSV | 319 nM | 11.4 fold | 397 nM | 10.8 fold | 11.1 fold

Further binders by falling IC50 [1], results first:

IC50 [1] | fold change (IC50 against rhTSH) [1] | IC50 [2] | fold change (IC50 against rhTSH) [2] | fold decrease of receptor binding affinity against rhTSH control [3] | Binder
743 nM | 26.5 fold |  |  |  | 40 kD 4-arm PEG G22C (ligand, Chain 1 (alpha) pos 22: Cys carrying a 40 kD 4-arm (branched) cysteine-reactive PEG, written C. N-glycans at alpha Asn52, Asn78 and beta Asn23.) alpha: not shown beta: FCIPTEYTMHIERRECAYCLTINTTICAGYCMTRDINGKLFLPKYALSQDVCTYRDFIYRTVEIPGCPLHVAPYFSYPVALSCKCGKCNTDYSDCIHEAIKTNYCTKPQKSYLVGFSV
417 nM | 14.9 fold |  |  |  | 40 kD 2-arm PEG G22C (ligand, Chain 1 (alpha) pos 22: Cys carrying a 40 kD 2-arm (branched) cysteine-reactive PEG, written C. N-glycans at alpha Asn52, Asn78 and beta Asn23.) alpha: not shown beta: FCIPTEYTMHIERRECAYCLTINTTICAGYCMTRDINGKLFLPKYALSQDVCTYRDFIYRTVEIPGCPLHVAPYFSYPVALSCKCGKCNTDYSDCIHEAIKTNYCTKPQKSYLVGFSV
28 nM | 1 fold | 36.7 nM | 1 fold |  | Recombinant human TSH (rhTSH), THYROGEN Thyroid Stimulating Hormone (ligand, N-linked glycans at alpha Asn52 and Asn78 and beta Asn23; not carried by the letters., also called TSH control; control TSH; copies: 1 + 1) alpha: not shown beta: FCIPTEYTMHIERRECAYCLTINTTICAGYCMTRDINGKLFLPKYALSQDVCTYRDFIYRTVEIPGCPLHVAPYFSYPVALSCKCGKCNTDYSDCIHEAIKTNYCTKPQKSYLVGFSV

Source: US20170065725A1 (published 2017)
